Laboratory results: patent publication US20120269801A1

Key:
[1] = molecular target: CD59 in membrane extract of lysed CD59-expressing red blood cells (UniProt P13987); assay: phage ELISA, membrane extract of CD59(+) red cells coated, anti-M13-HRP; helper phage control
[2] = molecular target: CD59 (target protein) (human) (UniProt P13987); assay: phage ELISA, CD59 coated directly, anti-M13-HRP; helper phage control

Substance: M13KO7 helper phage
- OD490 (Ag+ phage+, CD59(+)red cell) [1]: 0.046 OD
- OD490 (Ag+ phage+) [2]: 0.046 OD
